Results on 35 substances are retold here after paper PMC5790001.

The target of assay [1] is CCR5 (human (endogenous in PM1 cells and MDM)) (UniProt P51681).
The target is the same in assay [2]. This is another data set of the same source.
Assay [3] shares this target. This is another data set of the same source.
The target is the same in assay [4]. This is another data set of the same source.
The target in assay [5] is human CCR5 on CHO-CD4-CCR5 cells (human) (UniProt P51681).

Like-named read-outs stand apart in the source and are kept apart here.

Regarding “5p12 E66S (from UniProt P13501 24-91) (ligand)”, in assay [1], the other was 18 pM. Still for that read-out and setting: the result for “5p12 F12Y/A13V (from UniProt P13501 24-91) (ligand)” reads 30 pM. Still for that read-out and setting: then “5p12 F12Y/A13V/Y27W/F28W/E66S (CCL5 5p12 5 m) (L. jensenii) (from UniProt P13501 24-91) (ligand)”, with 5.5 pM; and “5p12 Y27W (from UniProt P13501 24-91) (ligand)”, with 17 pM.

“5p12 Y27W/F28W (from UniProt P13501 24-91) (ligand)”: the other in assay [1] turned out to be 8.2 pM. On the same count and under the same terms, then “5p12 Y27W/F28W/E66S (from UniProt P13501 24-91) (ligand)”, with 7.7 pM. In the case of “5p12-RANTES (E. coli) (from UniProt P13501 24-91) (ligand)”, the other in assay [2] worked out at 21 pM. In assay [1], “6p4 F12Y/A13V/Y27W/F28W/E66S (CCL5 6p4 5 m) (L. jensenii) (from UniProt P13501 24-91) (ligand)” registered an other of 4.7 pM. In assay [2], “6p4-RANTES (E. coli) (from UniProt P13501 24-91) (ligand)” yielded an other of 35 pM. In assay [1], “6p4-RANTES (L. jensenii) (from UniProt P13501 24-91) (ligand)” registered an other of 30 pM. Same read-out and setting: the result for “C1C5 27W/28 W (from UniProt P13501 24-91) (ligand)” reads 833 pM. As to “C1C5 E66S (from UniProt P13501 24-91) (ligand)”, the other in assay [1] is 1600 pM. “C1C5 Y27W (from UniProt P13501 24-91) (ligand)” displayed an other in assay [1] of 3700 pM. Same read-out and setting: the result for “C1C5 Y27W/F28W/E66S (from UniProt P13501 24-91) (ligand)” reads 640 pM. With “CCL5 5p12 5 m (E. coli) (from UniProt P13501 24-91) (ligand)”, in assay [2], the other was 6.1 pM. In assay [3], the IC50 of inhibition of HIV-1BaL infection in human monocyte-derived macrophages (MDM); blocks HIV-1 entry through CCR5 is 14.2 pM; the IC50 of inhibition of the primary R5 HIV-1 strain 98IN007 (clade C), acute infection assay in PM1 cells; blocks HIV-1 entry through CCR5 was 7.6 pM; the IC50 of inhibition of the primary R5 HIV-1 strain 5513 (clade B), acute infection assay in PM1 cells; blocks HIV-1 entry through CCR5 amounted to 15.5 pM. For “CCL5 5p12 5 m (total chemical synthesis) (from UniProt P13501 24-91) (ligand)”, in assay [4], the IC50 of HIV-1BaL inhibition, acute infection assay, protein from total chemical synthesis; blocks HIV-1 entry through CCR5 is 3.9 pM. In assay [2], “CCL5 6p4 5 m (E. coli) (from UniProt P13501 24-91) (ligand)” showed an other of 7.9 pM. The percent of surface CCR5 internalized, flow cytometry (mAb 3A9) of CHO-CD4-CCR5 cells treated with 100 nM ligand, 4 h, 37 °C in assay [5] was determined as 70%.

Take “CCL5 6p4 5 m (total chemical synthesis) (from UniProt P13501 24-91) (ligand)”: the IC50 of HIV-1BaL inhibition, acute infection assay, protein from total chemical synthesis; blocks HIV-1 entry through CCR5 in assay [4] was determined as 3.9 pM. With “CCL5 A13F (from UniProt P13501 24-91) (ligand)”, the other in assay [1] amounted to 92 pM. The substance “CCL5 A13M (from UniProt P13501 24-91) (ligand)” returned an other in assay [1] of 256 pM. Still for that read-out and setting: then “CCL5 A13P (from UniProt P13501 24-91) (ligand)”, with above 1000 pM; and “CCL5 A13V (from UniProt P13501 24-91) (ligand)”, with 86 pM. “CCL5 A13W (from UniProt P13501 24-91) (ligand)”: in assay [1], the other was 169 pM. With “CCL5 A13Y (from UniProt P13501 24-91) (ligand)”, the other in assay [1] was 78 pM. On the same count and under the same terms, then “CCL5 E66S (from UniProt P13501 24-91) (ligand)”, with 190 pM; and “CCL5 F12P (from UniProt P13501 24-91) (ligand)”, with above 1000 pM; and “CCL5 F12W (from UniProt P13501 24-91) (ligand)”, with above 6500 pM. “CCL5 F12Y/A13V (from UniProt P13501 24-91) (ligand)”: in assay [1], the other was found to be 179 pM.

Consider “CCL5 F12Y/A13V/Y27W/F28W (CCL5 4 m) (from UniProt P13501 24-91) (ligand)”, for which the other in assay [1] came to 115 pM.

In assay [1], “CCL5 F12Y/A13V/Y27W/F28W/E66S (CCL5 5 m) (L. jensenii) (from UniProt P13501 24-91) (ligand)” yielded an other of 34 pM. On the same count and under the same terms, then “CCL5 F28W (from UniProt P13501 24-91) (ligand)”, with 162 pM; and “CCL5 Y27W (from UniProt P13501 24-91) (ligand)”, with 255 pM. Still for that read-out and setting: the result for “CCL5 Y27W/F28W (from UniProt P13501 24-91) (ligand)” reads 95 pM; that for “CCL5 Y27W/F28W/E66S (from UniProt P13501 24-91) (ligand)”, 46 pM. Regarding “wt CCL5 (E. coli) (from UniProt P13501 24-91) (ligand)”, the IC50 (pM) of HIV-1BaL inhibition, acute infection assay in PM1 cells (p24), protein purified from E. coli; blocks HIV-1 entry through CCR5 in assay [2] was determined as 810 pM. In assay [5], the percent of surface CCR5 internalized, flow cytometry (mAb 3A9) of CHO-CD4-CCR5 cells treated with 100 nM ligand, 4 h, 37 °C amounted to 55%.
